Source: publication PMC5544353

Target: Reconstituted CENP-A chromatin (CENP-A nucleosome arrays with Myc-tagged histone H4) (UniProt Q569M3)
Assay: chromatin-bead binding read by immunofluorescence

UniProt Q569M3, sequence (Q569M3 whole entry, looked up): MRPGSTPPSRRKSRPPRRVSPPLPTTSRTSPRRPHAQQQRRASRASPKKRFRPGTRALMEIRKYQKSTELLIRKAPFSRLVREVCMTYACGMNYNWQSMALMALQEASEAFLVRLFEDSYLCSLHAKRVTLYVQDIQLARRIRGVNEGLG

binding as percent of full-length M18BP1-2 | fold enrichment on CENP-A chromatin relative to H3 chromatin | Substance
53% | – | M18BP1-2 truncation, amino acids 747-944 (in vitro translated) (domain or fragment)
– | 5 fold | Xenopus laevis M18BP1-2, full length (natural protein)
– | 2.5 fold | Xenopus laevis M18BP1-1 (natural protein)
